In general, EC50 refers to the concentration at which the effect is half-maximal.

In experiment [1] the target is gLgH蛋白 (recombinant single-chain EBV M81 gL ectodomain - linker - gH ectodomain - 6xHis) (Epstein-Barr virus (M81 strain, KF373730.1)). The experiment is described as follows: ELISA, gLgH coated at 2 μg/mL, antibody titrated from 1 μg/mL (Fig. 2). For orientation: ELISA stands for enzyme-linked immunosorbent assay.
Experiment [2] deals with gH/gL glycoprotein on EBV virions produced by AKATA cells (Epstein-Barr virus) (UniProt P03231). Briefly: cell-based or functional assay.

As to AMMO1 (针对EB病毒gLgH糖蛋白的人源中和单抗) (antibody), in experiment [1], the EC50 is 0.0255 µg/mL. This substance displayed an IC50 in the epithelial cell infection model (HNE1 cells, GFP-EBV, inhibition of GFP-positive cells) in experiment [2] of 0.0828 µg/mL.

The record behind these values is patent publication CN113372440A.
